Measurements taken from patent publication US20250188194A1, “Method of treatment” (Nucleus Therapeutics Pty Ltd, priority 2021, published 2025).
Values joined by “and” are separate entries in the source; they are usually repeats but may differ in a detail not shown here. Equal entries are not always repeated.

System: differentiated PLB-985 cells
Experiment: Visualization of chromatin decondensation by DAPI stain after PMA stimulation
Format: cell-based, human
Settings: one hour pre-treatment with 10 μM DX1, 300 nM PMA two hours; control cells 67.5%; N=2
Procedure: FIGS. 2A-2D. DAPI and SYTOX™ Green stains support the conclusion that DX1inhibits chromatin decondensation and DNA release by differentiated PLB-985 cells stimulated with PMA. (2A) Chromatin decondensation in differentiated PLB-985 cells after stimulation with PMA±a one hour pre-treatment with 10 μM DX1 was visualized by DAPI stain. Left panel: Control cells with decondensed DAPI stain after PMA stimulation. Right panel: DX1-treated cells retaining condensed DAPI signal after PMA stimulation. Bar: 25 μm. (2B) Quantification of the percentage of differentiated PLB-985 cells with decondensed DAPI stain after PMA stimulation. […] (2C) DNA release by differentiated PLB-985 cells after stimulation with PMA±a one hour pre-treatment with 10 μM DX1 was visualized by addition of the impermeant DNA stain SYTOX™ Green. Representative images are shown. Bar: 25 μm. (2D) SYTOX™ Green signal in wells containing differentiated PLB-985 cells stimulated with PMA±a one hour pre-treatment with 10 […] was quantified by plate reader. […]
Differentiated PLB-985 cells were plated on Shi-fix coverslips in 12-well plates at 5×10^4 cells/well. […] Cells were fixed with ethanol followed by addition of DAPI and visualization of chromatin decondensation by fluorescence microscopy (EVOS FL, Thermo Fisher Scientific).

B1: DX1: 3E10 derivative, a di-scFv having the sequence SEQ ID NO: 38; nuclear-penetrating anti-DNA binding protein (protein)
scFv: DIQMTQSPSSLSASLGDRATITCRASKTVSTSSYSYMHWYQQKPGQPPKLLIKYASYLESGVPSRFSGSGSGTDFTLTISSLQPEDAATYYCQHSREFPWTFGGGTKVEIKTVDAAPGGGGSGGGGSGGGGSEVQLVESGGGLVQPGGSLRLSCAASGFTFSNYGMHWVRQAPGKGLEWVSYISSGSSTIYYADSVKGRFTISRDNAKNSLYLQMNSLRAEDTAVYYCARRGLLLDYWGQGTTVTVSSASTKGPSVFPLAPLESTGSDIQMTQSPSSLSASLGDRATITCRASKTVSTSSYSYMHWYQQKPGQPPKLLIKYASYLESGVPSRFSGSGSGTDFTLTISSLQPEDAATYYCQHSREFPWTFGGGTKVEIKTVDAAPGGGGSGGGGSGGGGSEVQLVESGGGLVQPGGSLRLSCAASGFTFSNYGMHWVRQAPGKGLEWVSYISSGSSTIYYADSVKGRFTISRDNAKNSLYLQMNSLRAEDTAVYYCARRGLLLDYWGQGTTVTVSS
modifications: DX1 sequence
  percentage of cells with decondensed DAPI stain after PMA stimulation: 37.8±2.7% and 37.8±3.8%
